Numbering of substitutions follows the chain as printed. Names may count otherwise.
T1: Complement C2 (human) (human, UniProt P06681 21-752)
T1 sequence: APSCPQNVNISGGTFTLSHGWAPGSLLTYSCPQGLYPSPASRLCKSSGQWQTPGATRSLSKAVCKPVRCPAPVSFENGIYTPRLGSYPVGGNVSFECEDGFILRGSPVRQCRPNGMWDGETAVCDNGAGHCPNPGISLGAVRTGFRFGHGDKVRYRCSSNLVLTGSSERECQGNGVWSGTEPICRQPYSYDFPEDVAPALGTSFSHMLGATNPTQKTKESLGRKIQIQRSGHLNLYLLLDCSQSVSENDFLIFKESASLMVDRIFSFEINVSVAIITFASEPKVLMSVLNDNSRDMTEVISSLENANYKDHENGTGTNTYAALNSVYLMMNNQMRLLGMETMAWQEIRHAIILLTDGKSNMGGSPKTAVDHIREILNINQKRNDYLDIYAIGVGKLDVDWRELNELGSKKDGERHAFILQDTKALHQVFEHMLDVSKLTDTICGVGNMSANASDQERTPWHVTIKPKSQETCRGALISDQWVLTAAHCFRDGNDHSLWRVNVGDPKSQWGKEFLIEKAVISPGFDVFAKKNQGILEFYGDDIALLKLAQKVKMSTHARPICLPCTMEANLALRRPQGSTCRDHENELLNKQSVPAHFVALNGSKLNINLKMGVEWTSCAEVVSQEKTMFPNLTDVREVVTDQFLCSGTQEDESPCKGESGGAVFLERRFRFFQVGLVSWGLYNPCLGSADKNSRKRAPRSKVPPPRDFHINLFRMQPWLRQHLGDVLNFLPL

T2: alpha-2 macroglobulin (in human plasma) (human, UniProt P01023 24-1474)
T2 construct: Not purified: the endogenous protein of the plasma
T2 sequence (looked up): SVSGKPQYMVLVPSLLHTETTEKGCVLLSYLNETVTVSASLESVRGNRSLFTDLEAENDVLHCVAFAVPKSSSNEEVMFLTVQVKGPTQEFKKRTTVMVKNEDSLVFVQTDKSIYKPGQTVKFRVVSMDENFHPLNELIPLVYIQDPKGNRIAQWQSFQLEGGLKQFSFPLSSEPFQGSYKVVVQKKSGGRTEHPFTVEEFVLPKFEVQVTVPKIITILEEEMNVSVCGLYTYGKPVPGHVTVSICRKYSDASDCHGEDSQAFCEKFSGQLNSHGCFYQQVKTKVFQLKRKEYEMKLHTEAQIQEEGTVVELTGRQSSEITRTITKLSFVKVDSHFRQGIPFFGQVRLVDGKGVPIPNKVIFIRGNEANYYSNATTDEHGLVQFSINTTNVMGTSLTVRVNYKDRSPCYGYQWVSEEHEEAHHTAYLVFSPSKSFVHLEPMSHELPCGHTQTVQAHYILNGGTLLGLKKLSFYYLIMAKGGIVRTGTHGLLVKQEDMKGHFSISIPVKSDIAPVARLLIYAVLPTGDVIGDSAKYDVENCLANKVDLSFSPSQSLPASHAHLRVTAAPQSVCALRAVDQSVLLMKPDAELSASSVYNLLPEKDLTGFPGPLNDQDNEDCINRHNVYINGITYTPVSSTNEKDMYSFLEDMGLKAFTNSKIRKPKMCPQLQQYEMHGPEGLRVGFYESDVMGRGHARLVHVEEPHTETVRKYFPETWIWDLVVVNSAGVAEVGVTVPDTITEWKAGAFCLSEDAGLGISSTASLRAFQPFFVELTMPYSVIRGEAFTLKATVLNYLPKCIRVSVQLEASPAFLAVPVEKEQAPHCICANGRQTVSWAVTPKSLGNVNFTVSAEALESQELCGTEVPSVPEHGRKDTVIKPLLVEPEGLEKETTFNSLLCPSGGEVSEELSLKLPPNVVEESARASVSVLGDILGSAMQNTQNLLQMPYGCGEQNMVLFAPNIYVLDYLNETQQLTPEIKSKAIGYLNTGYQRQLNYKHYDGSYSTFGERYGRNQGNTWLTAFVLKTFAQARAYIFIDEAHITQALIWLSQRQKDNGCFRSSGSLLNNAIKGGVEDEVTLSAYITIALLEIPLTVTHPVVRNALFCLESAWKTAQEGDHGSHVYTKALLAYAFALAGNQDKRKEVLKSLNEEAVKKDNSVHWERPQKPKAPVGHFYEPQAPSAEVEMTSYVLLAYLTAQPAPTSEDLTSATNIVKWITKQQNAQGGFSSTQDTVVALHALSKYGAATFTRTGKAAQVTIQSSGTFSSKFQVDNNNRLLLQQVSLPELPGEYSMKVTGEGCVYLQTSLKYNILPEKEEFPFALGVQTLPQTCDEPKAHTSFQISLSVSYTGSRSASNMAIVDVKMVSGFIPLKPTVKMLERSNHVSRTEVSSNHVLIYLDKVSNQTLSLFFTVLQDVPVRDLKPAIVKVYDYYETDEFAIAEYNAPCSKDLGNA

B1: modified MT-SP1 CB155 (Y146D/K224F) protease domain (enzyme)
chain: VVGGTDADEGEWPWQVSLHALGQGHICGASLISPNWLVSAAHCYIDDRGFRYSDPTQWTAFLGLHDQSQRSAPGVQERRLKRIISHPFFNDFTFDYDIALLELEKPAEYSSMVRPICLPDASHVFPAGKAIWVTGWGHTQDGGTGALILQKGEIRVINQTTCENLLPQQITPRMMCVGFLSGGVDSCQGDSGGPLSSVEADGRIFQAGVVSWGDGCAQRNFPGVYTRLPLFRDWIKENTGV
B2: modified MT-SP1 CB483 (I41T/Y146D/G151L/Q175D/K224N) protease domain (enzyme)
chain: B1 chain with I26T, G145L, Q169D, F221N
B3: modified MT-SP1 CB487 (I41T/Y146E/G151L/Q175D/K224N) protease domain (enzyme)
chain: B1 chain with I26T, D141E, G145L, Q169D, F221N
B4: modified MT-SP1 CB486 (I41T/Y146E/Q175D/K224R) protease domain (enzyme)
chain: B1 chain with I26T, D141E, Q169D, F221R
B5: modified MT-SP1 CB480 (I41T/Y146D/G151L/Q175D/K224F) protease domain (enzyme)
chain: B1 chain with I26T, G145L, Q169D
B6: modified MT-SP1 CB481 (I41T/Y146D/G151L/Q175D/K224L) protease domain (enzyme)
chain: B1 chain with I26T, G145L, Q169D, F221L
B7: modified MT-SP1 CB485 (I41T/Y146E/Q175D/K224L) protease domain (enzyme)
chain: B1 chain with I26T, D141E, Q169D, F221L
B8: modified MT-SP1 CB478 (I41T/Y146D/Q175D/K224N) protease domain (enzyme)
chain: B1 chain with I26T, Q169D, F221N
B9: modified MT-SP1 CB476 (I41T/Y146D/Q175D/K224L) protease domain (enzyme)
chain: B1 chain with I26T, Q169D, F221L
B10: modified MT-SP1 CB477 (I41T/Y146D/Q175D/K224R) protease domain (enzyme)
chain: B1 chain with I26T, Q169D, F221R
B11: modified MT-SP1 CB422 (I41T/Y146E/Q175D/K224N) protease domain (enzyme)
chain: B1 chain with I26T, D141E, Q169D, F221N
B12: modified MT-SP1 CB488 (I41T/Y146E/G151L/Q175D/K224F) protease domain (enzyme)
chain: B1 chain with I26T, D141E, G145L, Q169D
B13: modified MT-SP1 CB489 (I41T/Y146E/G151L/Q175D/K224L) protease domain (enzyme)
chain: B1 chain with I26T, D141E, G145L, Q169D, F221L
B14: modified MT-SP1 CB421 (I41T/Y146D/Q175D/K224F) protease domain (enzyme)
chain: B1 chain with I26T, Q169D
B15: modified MT-SP1 CB490 (I41T/Y146E/G151L/Q175D/K224R) protease domain (enzyme)
chain: B1 chain with I26T, D141E, G145L, Q169D, F221R
B16: modified MT-SP1 CB482 (I41T/Y146D/G151L/Q175D/K224R) protease domain (enzyme)
chain: B1 chain with I26T, G145L, Q169D, F221R

Target: T1, Complement C2 (human)
Assay: cell-based or functional assay

For B1, the “IC50 based on gel densitometry of C2 cleavage products (purified C2)” value was 2.2 nM.

In the case of B1, the “IC50 for hemolysis in C2 depleted serum supplemented with protease-treated C2” value is reported as 17 nM.

B1 was tested, and the “IC50 of the proteases for cleavage of C2 (Western blot densitometry, 5% human plasma, 1 h 37 C)” value was 18.4 nM.

Target: T3, M84R ecotin (UniProt P23827 21-162)
T3 construct: Position 84 is probably counted on mature ecotin, not on the precursor entry; also called ecotin M84R
Assay: active site titration of purified CB155 with M84R ecotin, residual Ac-RQAR-AMC activity
Protocol: The purified protein was assayed for specific activity, purity, and endotoxin levels. The specific activity or amount of active protease in each prep was determined by active site titration by incubation with an inhibitor that binds in the active site of the functional protease at varying concentrations followed by addition to a fluorogenic substrate for measurement of substrate proteolysis. The amount of active enzyme was calculated from a plot of the residual protease activity against the inhibitor concentration where the intercept corresponds to the concentration of active protease. […] Enzyme activity was monitored at 30° C. in the presence of 40 μM Ac-RQAR-AMC in assay buffer containing 50 mM Tris pH 8.0, 50 mM NaCl, and 0.01% Tween-20 (for trypsin activity, 10 mM CaCl2 was added) on a Gemini XPS spectrafluorimeter (Excitation: 380 nm; Emission: 450 nm; Cut-off: 435 mn). Purity of the protein preparation was assessed by resolution of the protein product on SDS-PAGE followed by staining with Coomassie Blue. […] The level of endotoxin in each prep was determined by Liumlus Amebocyte Lysate Chromo-LAL assay (Associated of Cape Cod) according to the manufacturer's protocol with the following modifications. […]

B1: binds.

Target: T2, alpha-2 macroglobulin (in human plasma)
Assay: Ac-RQAR-AMC activity of protease after 5 min in human citrated plasma, with and without M84R ecotin
Protocol: In addition, the percent protease unbound by alpha-2 macroglobulin (a2M) also was determined. Inactivation of a protease by alpha-2 macroglobulin traps the protease in a complex where it is still able to turn over small fluorescent substrates, but unable to access large protein substrates. This property of alpha-2 macroglobulin complicates the assessment of a proteases activity in plasma. To determine the actual activity of the free, uncomplexed protease in plasma, a two step measurement is required. First, the sample's activity on fluorescent substrates is measured. […] The percent unbound by alpha-2 macroglobulin activity is the percentage of the plasma residual activity that is inhibited by the addition of the ecotin. Briefly, in a 0.2 mL PCR tube, 1 μL 10× protease was mixed with 9 μL human plasma in citrate (Innovative Research). A uninhibted control also was prepeared containing 1 μL 10× protease mixed with 9 μL PBST. The mixtures were incubated for 5 minutes at 37° C. The samples were diluted 250 fold in PBST and stored on ice. Two 50 μL aliquots for each sample were transferred to an opaque assay plate (Costar #3694) containing 2 μL PBST or 2 μL 520 nM M84R ecotin. The plates were incubated 10 minutes at room temperature. Five microliters 0.4 mM Ac-RQAR-AMC substrate was added and the fluorescence was measured over time with a SpectraMax M5 spectrafluorometer (Molecular Devices) set to read every 20 seconds for 30 minutes at 30° C. (Ex: 380 nm, EM: 450 nm, Cut-off: 435 nm). The percent unbound by alpha-2 macroglobulin was calculated with the following formula: (1-([(Protease in plasma/Protease in PBST)−(Protease in plasma+ecotin/Protease in PBST)]/(Protease in plasma/Protease in PBST)))*100.

Compared with B2, B3 is lower in “% Unbound by a2M” value: 73% for the first, 53% for the second.

Going from B4 to B5, the “% Unbound by a2M” value rises from 44% to 88%.

First: B6
Second: B7
The “% Unbound by a2M” value of the first is lower: 72% for the first, 82% for the second.

B8 and B9 are the same in “% Unbound by a2M” value: 89% for the first, 89% for the second.

Compared with B10, B11 is higher in “% Unbound by a2M” value: 67% for the first, 83% for the second.

Compared with B12, B13 is lower in “% Unbound by a2M” value: 85% for the first, 58% for the second.

First: B14
Second: B15
The “% Unbound by a2M” value of the first is higher: 84% for the first, 0% for the second.

In the case of B16, the “% Unbound by a2M” value is reported as 10%.
